Experimental data published in paper PMC3485041, “In Vitro Site Selection of a Consensus Binding Site for the Drosophila melanogaster Tbx20 Homolog Midline”.

T1: Midline T-box domain (MidTbx) (Drosophila melanogaster, UniProt Q8SYY8 171-393)
T1 sequence: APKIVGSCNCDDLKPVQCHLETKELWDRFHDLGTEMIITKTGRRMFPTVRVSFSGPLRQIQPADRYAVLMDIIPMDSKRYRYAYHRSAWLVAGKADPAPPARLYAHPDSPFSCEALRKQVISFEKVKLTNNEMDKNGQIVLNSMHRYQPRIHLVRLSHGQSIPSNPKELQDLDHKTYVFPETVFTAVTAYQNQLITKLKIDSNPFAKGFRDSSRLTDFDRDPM

B1: clone 74 (dsDNA)
DNA 1: CAGGTCAGTTCAGCGGATCCTGTCGCCTTAAGGTGCGGGCAGACAGGTGTGGAGGCGAATTCAGTGCAACTGCAGC
DNA 2: GCTGCAGTTGCACTGAATTCGCCTCCACACCTGTCTGCCCGCACCTTAAGGCGACAGGATCCGCTGAACTGACCTG
B2: clone 57 (dsDNA)
DNA 1: CAGGTCAGTTCAGCGGATCCTGTCGACATGGGAGGCTGTTACGGCGCGAACGAGGCGAATTCAGTGCAACTGCAGC
DNA 2: GCTGCAGTTGCACTGAATTCGCCTCGTTCGCGCCGTAACAGCCTCCCATGTCGACAGGATCCGCTGAACTGACCTG
B3: clone 2 (dsDNA)
DNA 1: GCTGCAGTTGCACTGAATTCGCCTCACCATCACACCAGCGAAGTGACAGTTCGACAGGATCCGCTGAACTGACCTG
DNA 2: CAGGTCAGTTCAGCGGATCCTGTCGAACTGTCACTTCGCTGGTGTGATGGTGAGGCGAATTCAGTGCAACTGCAGC
B4: clone 4 (dsDNA)
DNA 1: GCTGCAGTTGCACTGAATTCGCCTCCGTGCGTACGTGTCAATTCGTCAAGGCCGACAGGATCCGCTGAACTGACCTG
DNA 2: CAGGTCAGTTCAGCGGATCCTGTCGGCCTTGACGAATTGACACGTACGCACGGAGGCGAATTCAGTGCAACTGCAGC
B5: clone 43 (dsDNA)
DNA 1: CAGGTCAGTTCAGCGGATCCTGTCGGGGGGCTGGTGCGAAAGTGTGTAGTGGCAGGTCAGTTCAGCGGATCCTGTCG
DNA 2: CGACAGGATCCGCTGAACTGACCTGCCACTACACACTTTCGCACCAGCCCCCCGACAGGATCCGCTGAACTGACCTG
B6: clone 75 (dsDNA)
DNA 1: CAGGTCAGATCAGCGGATCCTGTCGCGACGCCTTGGGGGTGTCACGGCGCGGCAGGTCAGATCAGCGGATCCTGTCG
DNA 2: CGACAGGATCCGCTGATCTGACCTGCCGCGCCGTGACACCCCCAAGGCGTCGCGACAGGATCCGCTGATCTGACCTG
B7: clone 42 (dsDNA)
DNA 1: CAGGTCAGTTCAGCGGATCCTGTCGGGTGTTGATGGTGTTAACGCGCGAGGGAGGCGAATTCAGTGCAACTGCAGC
DNA 2: GCTGCAGTTGCACTGAATTCGCCTCCCTCGCGCGTTAACACCATCAACACCCGACAGGATCCGCTGAACTGACCTG
B8: clone 72 (dsDNA)
DNA 1: GCTGCAGTTGCACTGAATTCGCCTCAGCGCCCAGTTGGTGTTAAGCCAGTCCGACAGGATCCGCTGAACTGACCTG
DNA 2: CAGGTCAGTTCAGCGGATCCTGTCGGACTGGCTTAACACCAACTGGGCGCTGAGGCGAATTCAGTGCAACTGCAGC
B9: clone 67 (dsDNA)
DNA 1: CAGGTCAGTTCAGCGGATCCTGTCGCTACGGAGGTGATTACACGCGAAATCGAGGCGAATTCAGTGCAACTGCAGC
DNA 2: GCTGCAGTTGCACTGAATTCGCCTCGATTTCGCGTGTAATCACCTCCGTAGCGACAGGATCCGCTGAACTGACCTG
B10: clone 50 (dsDNA)
DNA 1: CAGGTCAGTTCAGCGGATCCTGTCGAGGTGTGGCACTGTGAAGTTCGCGAGGAGGCGAATTCAGTGCAACTGCAGC
DNA 2: GCTGCAGTTGCACTGAATTCGCCTCCTCGCGAACTTCACAGTGCCACACCTCGACAGGATCCGCTGAACTGACCTG
B11: mid.Najand (dsDNA)
DNA 1: CAAGGTGTCAAGGCG
DNA 2: CGCCTTGACACCTTG
B12: mid.Najand Region 2 (dsDNA)
DNA 1: CAAGGTGTCAAGGAA
DNA 2: TTCCTTGACACCTTG
B13: mid.Liu (dsDNA)
DNA 1: GGAAGTAGGTCAAG
DNA 2: CTTGACCTACTTCC
B14: mid.Najand Region 1 (dsDNA)
DNA 1: CACCCCCCCAAGGCG
DNA 2: CGCCTTGGGGGGGTG
B15: Tbx20.MacIndoe (dsDNA)
DNA 1: GGAGGTGTGAGGCGA
DNA 2: TCGCCTCACACCTCC
B16: T-site (Brachyury palindrome) (dsDNA)
DNA 1: AATTTCACACCTAGGTGTGAAATT
DNA 2: AATTTCACACCTAGGTGTGAAATT

Target: T1, Midline T-box domain (MidTbx)
Test: EMSA; 20 mM HEPES pH 7.9, 100 mM KCl, 0.2 mM EDTA, 0.2 mM EGTA, 20% glycerol, 0.1% NP40, 0.5 mM DTT, 10 mg/ml BSA, 8 ng/ul poly(dI-dC); room temperature 1 h; 15 fmol
Conditions: protein: recombinant; tags: C-terminal 6xHis (pET-21a); label: 5' biotin (primer F); blunt

Binder	binding result
B1	binds
B2	binds
B3	binds
B4	binds
B5	binds
B6	binds
B7	binds
B8	binds
B9	binds
B10	binds

Same assay, conditions: protein: recombinant; tags: C-terminal 6xHis (pET-21a); label: 5' biotin; blunt

Binder	binding result
B11	binds
B12	binds
B13	no binding
B14	no binding
B15	binds

Same assay, conditions: protein: recombinant; tags: C-terminal 6xHis (pET-21a); label: 5' biotin; blunt; self-complementary, 2 copies

Binder	binding result
B16	binds
